Reference: the supplement of paper PMC12636428

Tested on: Saccharomyces cerevisiae
Assay: transcriptional activation domain activity (GFP:mCherry ratio, weighted mean of sorted bins, harmonized to initial dataset scale) (arbitrary fluorescence ratio units); higher = stronger transcriptional activation
Settings: beta-estradiol 1 µM; induction time 4 h
Method in brief: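 Barcoded protein tiles fused to an estradiol-inducible synthetic transcription factor were integrated at the yeast URA3 locus, in diploids carrying a GFP reporter. Cultures were diluted 1:5 into SC with 1 uM beta-estradiol, held 4 hours at 30 °C, sorted into 8 bins by GFP:mCherry ratio, and barcodes sequenced. Tiles under 50 reads were discarded. Activation activity is the read-weighted mean of bin median fluorescence, averaged across barcodes, then linearly mapped onto the initial dataset scale.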

Row | Sequence | transcriptional activation domain activity
1 | MFLPFSLSINHLPSLLLQPFILSLILLLFFLCLLHRLFPFLLQFFPFLFQFLS | 50100
2 | MFLPIVPFMLMLLRLLRLLRLLMLLMLLMLLPLFLFLFLLVMLCLFPLILLLL | 56200
3 | MFLSTVMTRSICTFIFVEFELHGDAKSLCCGGLCRFCRLCSKVGVNYYSPCWW | 73000
4 | MFLTLLLGISLLPSLVIVYHLPHSLSFFFPPFLPFLLLPSILFLPGPFLRTAR | 64000
5 | MFLVLGWMFAHFVTVSCWPLLLWHVFFWCCLTGASEAELFIPPFIFRLPILSS | 74400
6 | MFLYISLIFTLYYSTFPPPPPHPTSYLAIFLFLKLPWLFFSFSTSFSFTFFFW | 58400
7 | MFLYSHPPLHPNVFLPPPSLFICTMLQLVFYRPSSVYLLLLLFWIYPPLFLLC | 56400
8 | MFMDTLLFVFMHYGWTFFLNCCLWCFMISLCFWYVKFCLPIGCYILILCMWQG | 66200
9 | MFMGTLLLVFLHYDWAFFLDCCLWCFVISFCFCSVKFCLLVGCCILVLCNVAR | 70200
10 | MFMGTLLLVFMDYGWAFFLDCYLWFFVTSLCFWYVKFCLLVGCCILVLCNVAW | 31700
11 | MFMGTLWLVIFHYGWAFFLDYCVWYFMISLCFWCEVCLPVLLPAFHVCCLLWC | 52400
12 | MFMKHGDVSLGYEVCFCILIIITFGLSFFFFFFFHFFLFFHFWLFVSLLFFSD | 41900
13 | MFMSTLLLVFIHYGWAFFLGCCLWCFVISLCFWYVKLWLLVGCYILVLCDVAR | 37400
14 | MFMTELLWGPGVRRLFLVFLFFISFPSLIPFFLSCLSFCTLLISLLCSFGTCA | 38500
15 | MFPFVFLSSFLSCFRLYSFNTCYIFSLILLCWYTFLLSYNGSLFCYPMIVYFL | 70400
16 | MFPGLQYTLLCIHLSCDFIICCRAFLPYYLCFSHYFPVLMCPVSPVLILVWFI | 53600
17 | MFPYSWFRLLFRLLFLWPFLLFQLLFPWPTTLLILWPFRLLILWPIRLLILWP | 73200
18 | MFQAKLLQHMCDLHTNSGDGELKTLLTEILRMLLVTYIMAHVLTIERDTVHSV | 47600
19 | MFQIHFLLFFFFFFSFFLLLLCFDVSILEVYFYKLLLFSFFFMMIVDLFFLFL | 60300
20 | MFRLLEESFRYEPFVTFGLAVFACYFALIALNVVYYYYLFHFLWFCSYAFLAL | 51600
21 | MFRPYSKFVLPSFFDIVLIYIFQEFGREALIWCQLCLQRVLPFLGLYHMGEML | 38500

Row | Sequence | transcriptional activation domain activity
22 | MFSCLLFLAYLPAISLIPCDCFWVFFFFFFLGCVKTRVLYLFFFFLCCSWFFY | 47400
23 | MFSFSFPLFLSPLPISLFFLPFALSYSLLSSHLMADICLSSTRWLSSIFFSFF | 36100
24 | MFSFYMPTPPPFFPFPLVLFFFFFAVHRFHKISTFSTPFFFWIHFIVVLLFSF | 58600
25 | MFSHFNSSDLTSTFFFFMPVLGFILCPFFLLESMVCALVGWPCFLLSYCLPCL | 68900
26 | MFSWLYLSYFQPLWRAFISLFIFLRTLHQSSPSIFFISIILLFICFPLAMFAV | 19200
27 | MFSYFVFLLTIVTFFHLIISFCFVFRCHYIVLLLLLQNVFIFCLFAHHCYIHV | 31400
28 | MFTFNASSTINITLSILCYFIFLISVLLIRLYLNNSFMLFSLFFFFYFIYVIL | 61200
29 | MFTGTLLVVFMHYGWSFFLNCCLGCLVISFCFWYVKLWLLIGRCILVLCIVAR | 69000
30 | MFTGTLWLAFFLDCCLWWYMMFLCFWYEACLHVLLLGFHVYCLLWCMILSLSL | 58200
31 | MFTLPSYSLFLSVHSFLIYPLPSCSFFFRISSPSIFTLSSCLSFPPVCPSLLF | 71700
32 | MFTRLLRYLHCSHFCFAIATRFRGWIGLFSPLYVSCFSQPFRFRYLGCLLFLF | 52800
33 | MFTRYLLLLLFAPLIYILGFFAASLSTHQPDYFYTWTRDSALVAQTNDTLLHD | 30900
34 | MFTWNRMKVLTVHAPCRTGGLARLFYNFCIKHPAMNIAWWIDEILFPLYHLAR | 53100
35 | MFVCTSQSFIRSMGLYGFYLTGLMMTLLVVVVSLTFIQYPTIVILTLFHCLIS | 44800
36 | MFVFHMFVFYFVCLFFICLSFILYALFFMSYFYFLLVYFDICFLFLYLFLIFI | 15300
37 | MFVGGWVMCLLFSKYSIYHLLAICALLFLLEYAFFFLLGIIHLLLLPTFFPFF | 37800
38 | MFVHWAAVFCLFFFCLAIIHPYLPVAFFFCSIYYKPFFLRLPRFLFGFWFFFS | 47700
39 | MFVLYTSGWESLHFFFPSPLVSFVLCWVLTRSLYRFLEVWVAYSVCLLLFLHV | 38600
40 | MFVNLFFSLLTPICTLCFFCNPLSLPLPFFPSHLFPLFSILPLLFFFFFLCCY | 46200
41 | MFVVLAMLLVILVVIFIFVIFVLIVLIFVILVMLLMLFFILIVIIAVIVLFFF | 16700
42 | MFWIFYELFLDGQDIHRFSLLLVFFLFFPFASYTYSLLLLILYSVSPYGFLTS | 38000

Row | Sequence | transcriptional activation domain activity
43 | MFWLSVSCYTYKIIRFYYADCGLVGVLKDQVQQCWIHLSYDLVYQYLPNLLNW | 69400
44 | MFWLTLLPSPCFTFFALCYKFFSFLVSIEFFKSCFLPLPTVSPNLLSSLALLL | 63800
45 | MFYFLLLYQSIVFLPYIFFSQFLIWVWCGLGREPGWHLEHGVYRYRWVRILSI | 39300
46 | MFYGFGSLSYGKGVTEFFFFSFFFFVASFISCFLFNFFSSAQFCCLFFHFVLI | 58300
47 | MFYKLLIIYCFLFFRIYFLFHFFSYIYFFFFLFSISNFVISLPSNLFSHLLFF | 47000
48 | MFYNAQFVDCGPSALVMVLVLLAPYLPNPLQLRRAFTTRPPTVLFAVLGILET | 61600
49 | MFYNFFFFIIIYLCFFARMFLVVSRIVMLLAFLYSCLIPLLCGLVFFCIRFKS | 67300
50 | MFYNFLFSLFSLFHMLLLHQSLVSLSYPFFLPGNFPLSVTIFIIAPLSLFWFI | 48900
51 | MFYYIYLFSFFFIIVLPLPLSLCTFLHPLLLDCNFTLVAFFFCLLLFYVCHFF | 28800
52 | MFYYYFSPHFYCFMLPLYIFLFLISLFFIYPSKFYFLLIVMGVGFFSLHLCLP | 51500
53 | MGARYWILECGDWLMAKAVPNSLPIVSFLFLLFFPWPFFVFILYLTLIALYSS | 42400
54 | MGASLRVQIWVCIRLELCCSWIWFLASFGILFFFFCFCPLRTSLHSFPLPLYI | 47800
55 | MGASLVVFLLFFHLLFKNGLDLLIFPFSFFYSCTIFLSFLSFLYFSFCTHVFF | 59800
56 | MGCDVVGCDVVGFLFFLFFFILFLGLLVCWLAGWHVCWVFWFLVFVLGGLGGL | 48200
57 | MGCFFCYCSIVLFRSSLYIISFFLLFFFLCFLFFYHIWVGVLFPSIFPLFYIR | 65400
58 | MGCFFSFLFFFLFLFLFRSTVQSKVAFSLSLFFSLFKYLFFCCLVLGYFYLVL | 70500
59 | MGCICVILARCYCQTLNHFLTVLLLFRSVIFVLFLLFHFFVFVYVLFFFSFII | 42000
60 | MGCILIFIFTFPYTPSFPFPFWFLFFVFLSFSFSFQKFLVFSFLSFVWVTVGR | 51700
61 | MGCILIFSFFSFPTSIKKFLLLSFPFLSFPFPSLLFYLGFFSFLLYILQKFLV | 58100
62 | MGCKLIILFSSAMLFLFFSVLFLLLPLFFLSPTTCFLSFWLRLWLLLMVHWGR | 47600
63 | MGCLHFSLFVAFWVFIAFPPSVSYHLALYLLLLLLFILFLLMCGLLRAFGLPV | 36700

Row | Sequence | transcriptional activation domain activity
64 | MGCVRHEKVIDITLKLFYKKTGGRYLKSEYNLFAVLVYLCLYRLPTDLPFATL | 53200
65 | MGDCIKAHVFLLTFFYLYIHTHIFLFLFFIFLPFLLFSASSIYILFSFLFFPA | 32300
66 | MGDCIKVHVSFHCRFLVFIYTHTFFLFLFYSSSIVFCFIYIYIFPFISFFWGL | 36000
67 | MGDIKKISCIFFSFIFGLVLFFFVIIITIICILWIWAWDFWACFGSGLGLLVC | 47100
68 | MGEEDAKVGAGPALQVIVLGSGGGPQENNVTALLVRSVNSNWARGSMLALDAG | 36500
69 | MGFASFRKESFCRIGTKELMCARMCLLCPLARSLIFMVLRVVLLLSTLLLVFL | 61900
70 | MGFCFYVAGCMSISLILLFSFCLLLPPIFTGYQILWLLWIILPILSMSMLFTP | 43400
71 | MGFCSLYGSIFLFLFLVFFLLFFSSSVGNGASFFFFFPSILFWYSLYPLFTSF | 35900
72 | MGFDQALGLKLSPSSSGLLSTNESNAIEQFLDNLISQDMMSSNASMNSESHLH | 76500
73 | MGFEVIFFFLLLGFFIQLLFILLIILLFLLFLVFLLFCYFVILFRLCACMMLY | 47900
74 | MGFFFVFYLLLSHCCFSLWVRGFGFFLSHPVFLFYILGGFCLVCFFPFFFPIN | 48900
75 | MGFFILFYFLFSLWVCGFGFFSRLSVLYLGGFVLFLINHLSLFLYIIFFFFMF | 38800
76 | MGFKDFPFVDFAVFFFFFFSPFFSSMFILSFIYLFWFDLGIGLVGVLLFFFCH | 47500
77 | MGFKLLLLLPYCTPRLIFKKLLLWLRFFFFLHFLFLPRRTLKNLAPCIFFLLY | 40900
78 | MGFKTSMGWICLSQVSFFDCNLLYCVVFFIFSSKSLATSPFLSLVLLFSLYPL | 29200
79 | MGFLFLLCVLVVWVFFRAWFFCFLFFLFLFLVLLFRYLFIYFLWSWYGGGSVG | 48000
80 | MGFLFLLCVLVVWVFFRAWFFRFLFSLVFLFWYFFIYFLWPWYGGVGRGLHSC | 36100
81 | MGFLLLLLILVFFFVLYLFYSFLFFFSFHWACCILYDMWEKERVELYLLLLLL | 42800
82 | MGFLTVHSCVFCFVVWVFFFPFFFLRDWFFSHSIFFLSLFFLVFFYIHLFLLG | 43700
83 | MGFSIDRAIELIWNLLYFFFLSSFLHIFLGLSWDMIICWNYFLSLFILLVFSS | 62600
